Where “and” joins values, the source holds several entries; their conditions need not be identical. Identical values can stand only once.

In assay [1] the target is S sensors L15 + S25: S(aa 328-533)-15aa-LgBiT and S(aa 328-533)-25aa-SmBiT (SARS-CoV-2).
Assay [2] addresses N sensors LC + SC: N(aa 44-180)-10aa-LgBiT and N(aa 44-180)-10aa-SmBiT (SARS-CoV-2). The assay can be described thus: spLUC, antibody dilution 100.
Assay [3] has as its target N sensors LC2 + SC2: N(aa 44-257)-LgBiT and N(aa 44-257)-SmBiT (SARS-CoV-2). The assay can be described thus: spLUC, antibody dilution 100.
Assay [4] has as its target N sensors LN + SN: LgBiT-10aa-N(aa 44-257) and SmBiT-10aa-N(aa 44-257) (SARS-CoV-2). Kind of assay: spLUC, antibody dilution 100.
Assay [5] concerns the target N sensors LC + SC: N(aa 44-180)-10aa-LgBiT and N(aa 44-180)-10aa-SmBiT (SARS-CoV-2). Kind of assay: spLUC, antibody dilution 1000.
Assay [6] has as its target N sensors LC2 + SC2: N(aa 44-257)-LgBiT and N(aa 44-257)-SmBiT (SARS-CoV-2). The assay can be described thus: spLUC, antibody dilution 1000.
For assay [7], the target named is N sensors LN + SN: LgBiT-10aa-N(aa 44-257) and SmBiT-10aa-N(aa 44-257) (SARS-CoV-2). Kind of assay: spLUC, antibody dilution 1000.
In assay [8] the target is N sensors LC + SC: N(aa 44-180)-10aa-LgBiT and N(aa 44-180)-10aa-SmBiT (SARS-CoV-2). Kind of assay: spLUC, antibody dilution 10000.
For assay [9], the target named is N sensors LC2 + SC2: N(aa 44-257)-LgBiT and N(aa 44-257)-SmBiT (SARS-CoV-2). The assay can be described thus: spLUC, antibody dilution 10000.
The target in assay [10] is N sensors LC + SC: N(aa 44-180)-10aa-LgBiT and N(aa 44-180)-10aa-SmBiT (SARS-CoV-2). Kind of assay: spLUC, antibody dilution 100000.
For assay [11], the target named is N sensors LC2 + SC2: N(aa 44-257)-LgBiT and N(aa 44-257)-SmBiT (SARS-CoV-2). The assay can be described thus: spLUC, antibody dilution 100000.
Assay [12] addresses N sensors LN + SN: LgBiT-10aa-N(aa 44-257) and SmBiT-10aa-N(aa 44-257) (SARS-CoV-2). Kind of assay: spLUC, antibody dilution 100000.
The target in assay [13] is N sensors LC + SC: N(aa 44-180)-10aa-LgBiT and N(aa 44-180)-10aa-SmBiT (SARS-CoV-2). The assay can be described thus: spLUC, antibody dilution 1000000.
Assay [14] deals with N sensors LC2 + SC2: N(aa 44-257)-LgBiT and N(aa 44-257)-SmBiT (SARS-CoV-2). The assay can be described thus: spLUC, antibody dilution 1000000.
Assay [15] addresses N sensors LN + SN: LgBiT-10aa-N(aa 44-257) and SmBiT-10aa-N(aa 44-257) (SARS-CoV-2). Kind of assay: spLUC, antibody dilution 1000000.

C105 Fab: in assay [1], the percent of signal competed came to 90%.
Regarding “rabbit polyclonal anti-N protein antibody (Sino Biological, Cat#: 40588-T62-50)”, the luminescence signal in [2] was 10900 and 10200; in [3], 9060 and 9420; in assay [4], 1970 and 2200; in assay [5], 4000 and 3560; in assay [6], 2910 and 2790; in assay [7], 677 and 684. For the same substance, the luminescence signal was 1030 and 694 in [8]; 563 and 505 in assay [9]; 811 and 592 in assay [10]; 475 and 327 in assay [11]; 146 and 145 in assay [12]; 598 and 600 in assay [13]. Besides, the luminescence signal is 332 and 281 in assay [14]; 138 and 104 in assay [15].
